Starred links: 1 amine or outer side, 2 acyl side, 3 side chain; linkers in the order of their positions; H or OH if unused. Non-standard residues stand in square brackets, D forms with d. Groups on a side chain read outwards from the residue. *: point of attachment. C20 diacid = O=C(O)CCCCCCCCCCCCCCCCCCC(=O)*; γGlu = O=C(O)[C@H](CCC(=O)[*:2])N[*:1]; Desaminohistidyl = O=C(CCc1c[nH]cn1)*; AEEA = NCCOCCOCC(=O)O; Inp = O=C(O)C1CCNCC1
Target: T1, human serum albumin (HSA) (human, UniProt P02768 25-609, biotinylated)
T1 construct: also called biotinylated HSA
Test: competition SPA on biotinylated HSA, 125I acylated GLP-1 tracer;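 also: streptavidin SPA beads carrying biotinylated HSA, competition incubated 20 h at room temperature, plates then read on a TopCount counter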
Protocol: Streptavidin-SPA beads (GE Healthcare RPNQ0009) were incubated with biotinylated HSA for 5 hours. The beads were washed with buffer to remove unbound HSA. […] After 20 hours of gentle rocking at room temperature the plates were centrifuged and counted on a TopCounter.

EC50: 300 to 800 nM
B1: [DesaminoHis7,Glu22,Arg26,Arg34]GLP-1-(7-37)Lys[2-(2-[2-(2-[2-(2-((S)-4-[1-[19-Carboxynonadecanoyl]piperidine-4-carbonylamino]-4-carboxybutyrylamino)ethoxy)etho … (peptide)
peptide: [Desaminohistidyl]AEGTFTSDVSSYLEEQAAREFIAWLVRGRGK([AEEA-AEEA-γGlu-Inp-C20 diacid])-NH2
SMILES: CC[C@H](C)[C@H](NC(=O)[C@H](Cc1ccccc1)NC(=O)[C@H](CCC(=O)O)NC(=O)[C@H](CCCNC(=N)N)NC(=O)[C@H](C)NC(=O)[C@H](C)NC(=O)[C@H](CCC(N)=O)NC(=O)[C@H](CCC(=O)O)NC(=O)[C@H](CCC(=O)O)NC(=O)[C@H](CC(C)C)NC(=O)[C@H](Cc1ccc(O)cc1)NC(=O)[C@H](CO)NC(=O)[C@H](CO)NC(=O)[C@@H](NC(=O)[C@H](CC(=O)O)NC(=O)[C@H](CO)NC(=O)[C@@H](NC(=O)[C@H](Cc1ccccc1)NC(=O)[C@@H](NC(=O)CNC(=O)[C@H](CCC(=O)O)NC(=O)[C@H](C)NC(=O)CCc1c[nH]cn1)[C@@H](C)O)[C@@H](C)O)C(C)C)C(=O)N[C@@H](C)C(=O)N[C@@H](Cc1c[nH]c2ccccc12)C(=O)N[C@@H](CC(C)C)C(=O)N[C@H](C(=O)N[C@@H](CCCNC(=N)N)C(=O)NCC(=O)N[C@@H](CCCNC(=N)N)C(=O)NCC(=O)N[C@@H](CCCCNC(=O)COCCOCCNC(=O)COCCOCCNC(=O)CC[C@H](NC(=O)C1CCN(C(=O)CCCCCCCCCCCCCCCCCCC(=O)O)CC1)C(=O)O)C(N)=O)C(C)C

Source: US20140011732A1 (Novo Nordisk, published 2014)
